What all share (assay): SEC
Assay [1] deals with Hera_core_E115C/R260C (Thermus thermophilus HB27).
Assay [2] addresses Hera_E115C/R260C (Thermus thermophilus HB27).
In assay [3] the target is Hera_core (aa 1-365) (Thermus thermophilus HB27).
In assay [4] the target is Thermus thermophilus DEAD box helicase Hera, wild-type (Thermus thermophilus HB27) (UniProt Q72GF3).
For assay [5], the target named is Hera_CTD (C-terminal domain of Hera, amino acids 370-511) (Thermus thermophilus HB27).

As a reminder, the stoichiometry N is the number of molecules, sites or subunits per partner or assembly.

“Hera_core_E115C/R260C (domain or fragment)” came in with a stoichiometry N in assay [1] of 2. Hera_E115C/R260C (enzyme) returned a stoichiometry N in assay [2] of 2. In turn, “Hera_core (aa 1-365) (domain or fragment)” displayed a stoichiometry N in assay [3] of 2. With “Thermus thermophilus DEAD box helicase Hera, wild-type (from UniProt Q72GF3 1-517) (enzyme)”, the stoichiometry N in assay [4] came out at 2. Substance “Hera_CTD (C-terminal domain of Hera, amino acids 370-511) (domain or fragment)” came in with a stoichiometry N in assay [5] of 2.

Source of the values: PMC2566870.
